From the supplement of paper PMC9170038 come the findings set out here.

The subject of data set [1] is MS2 coat protein. Nature of the data set: apparent KD of MS2 coat protein, switch ON state; designed switch direction (-1 OFF switch, 1 ON switch): 1; higher = weaker reporter binding. As to conditions: FMN input: 0 or 200 uM; Eterna round: R93 (includes R88 designs). The procedure, abridged:
(§1)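 Illumina sequencing clusters served as templates for on-chip transcription of the designed RNA switches. SNAP-549-labelled MS2 coat protein was then titrated in twofold steps from 0.7 or 1.5 nM to 3 µM, allowing 0.8–1.5 h per step at first and 10–20 min per step later. The buffer held 100 mM Tris-HCl pH 7.5, 80 mM KCl and 4 mM MgCl2, without or with constant ligand. Apparent KD is the median per design of normalised cluster binding-curve fits.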

Data set [2] relates to MS2 coat protein. Nature of the data set: apparent KD of MS2 coat protein, switch OFF state (with FMN for OFF switches, without FMN for ON switches); designed switch direction (-1 OFF switch, 1 ON switch): 1; higher = weaker reporter binding. As to conditions: FMN input: 0 or 200 uM; Eterna round: R93 (includes R88 designs). The procedure, abridged:
as §1

“AAAAAACAUGAGGAUCACCCAUGUGAAAAUAUGGAAGGAUAUACCGAAAAAAAAAAAAAGGUAGAAGGUCUAAAAA [SS! 1 MT 4]”: the results for the “apparent KD of MS2 coat protein” value in data set [1] and in data set [2] were 0.023 µM and 0.0323 µM, respectively.

Turning to “AAAAAACAUGAGGAUCACCCAUGUGAGAACAUGGGAGGAUAUACAAGGACGAGAGUCAAAGUAGAAGGCCUAAAAA [Garnet 65]”, the “apparent KD of MS2 coat protein” value in data set [1] was determined as 0.155 µM; in data set [2], 0.0299 µM.

Regarding “AAAAAACAUGAGGAUCACCCAUGUGCAAAAUUCGCAGGAUAUUCCUUUUUUAAAUGGGAGGGAGAAGGGUGUAAAA [Nob's Hobby 19 - Jieux - Same State 1]”, the “apparent KD of MS2 coat protein” value in data set [1] came to 0.0219 µM; in data set [2], 0.0345 µM.

Take “AAAAACACGGUGCAGGAUAUAUUAAUAGUCACAUGAGGAUCACCCAUGUUCAUUUAUAUGAACGAGUAGAAGGGCGGUGAAAAAA [Mat - Same state - Malcolm Mod - D112]”: the “apparent KD of MS2 coat protein” value in data set [1] amounted to 0.172 µM; in data set [2], 0.148 µM.

Regarding “AAAAAUCCAGCGCAGGAUAUCGCAGGGUGCACAUGAGGAUCACCCAUGUGUACCCAAACACCCUGCGAGAAGGGCGUUGGAAAAAA [SameState-I]”, the figures for the “apparent KD of MS2 coat protein” value in data set [1] and in data set [2] were 0.00966 µM and 0.0111 µM, respectively.

Consider “AAAACACAUGAGGAUCACCCAUGUAAAAACAAGGGAGGAUAUGCUUGGAAAACAUGCUAUGCAGAAGGCUCAAGUG [SS1 - 11]”, for which the “apparent KD of MS2 coat protein” value in data set [1] worked out at 0.0429 µM; in data set [2], 0.0311 µM.

As to “AAAACACAUGAGGAUCACCCAUGUGCCUAAUUCGCAGGAUAUUUCUCGAUUAAAUGAUAGGAAGAAGGGUGAUAAA [Nob's Hobby 36 - Jieux - Same State 1]”, the figures for the “apparent KD of MS2 coat protein” value in data set [1] and in data set [2] were 0.186 µM and 0.0409 µM, respectively.

As to “AAAAGACAUGAGGAUCACCCAUGUAAAAACAUGGGAGGAUAUGCAUGGAAAACAUGCUGUGCAGAAGGCUCAUGUC [SS1 - 18]”, the figures for the “apparent KD of MS2 coat protein” value in data set [1] and in data set [2] were 0.04 µM and 0.0255 µM, respectively.

In the case of “AAAAGACAUGAGGAUCACCCAUGUAAAAACGUAGGAGGAUAUGUAUGGAAACCAGACUGUACAGAAGGCCUCUGUC [SS1 - 72]”, the “apparent KD of MS2 coat protein” value in data set [1] was 0.0222 µM; in data set [2], 0.0211 µM.

As to “AAAAUAAAAAGGUAGGAUAUGGGUAAAACUACAUGAGGAUCACCCAUGUAAUAAAAAGAAAAAAACCAGAAGGACCAAAAUAAAA [72%, More Wateronthemoon, 8]”, the entries for the “apparent KD of MS2 coat protein” value in data set [1] and in data set [2] were 0.0132 µM and 0.0347 µM, respectively.

For the sequence “AAACAACAUGAGGAUCACCCAUGUCAAACAAAUCGAGGAUAUGGGCAGGAUUCUUCCUAACUAGAAGGCGAAAACA [Esmatidi]”, the “apparent KD of MS2 coat protein” value in data set [1] was determined as 0.164 µM; in data set [2] it was 0.0298 µM.

For the sequence “AAACCACAUGAGGAUCACCCAUGUAGAAAUAUGGGAGGAUAUACGAAGACGAAAGUCAAAGUAGAAGGCCUAAAAG [saturn 1]”, the “apparent KD of MS2 coat protein” value worked out at 0.0245 µM in data set [1] and 0.0724 µM in data set [2].

As to “AAAGAAGAAAGCGAGGAUAUGGAUGGGUAAACAUGAGGAUCACCCAUGUAUAAGAAAGAAAGAAACCAGAAGGCGCAAAAGAAAA [Khenemmaatre Hakor]”, the entries for the “apparent KD of MS2 coat protein” value in data set [1] and in data set [2] were 0.07 µM and 0.0937 µM, respectively.

As to “AAAGACAUGGUGCAGGAUAUAUUAAUAGUCACAUGAGGAUCACCCAUGUUCAUUUAUAUGAACGAGUAGAAGGGCGAUGAAAAAA [SameState2 Malc#7]”, the “apparent KD of MS2 coat protein” value in data set [1] stood at 0.0384 µM; in data set [2], 0.0388 µM.

As for “AAAUAAAUAAGAGAGGAUAUGUCAGAGAAAACAUGAGGAUCACCCAUGUGAUAAUAAAAAGGGUGACAGAAGGCUCAAAACAAAC [Topaz 52]”, the “apparent KD of MS2 coat protein” value in data set [1] was determined as 0.0199 µM; in data set [2], 0.0593 µM.

“AAAUAAAUGACUCAGGAUAUAUCAUAGAAUACAUGAGGAUCACCCAUGUUUUAAUAACAUGUUUGGUAGAAGGGAGUCAAUAAAU [LROPPY Same State 2 - v05_deltaG=1.86]”: the “apparent KD of MS2 coat protein” value in data set [1] came to 0.0259 µM; in data set [2] it was 0.116 µM.

As for “AAAUAACAUGAGGAUCACCCAUGUUACAACAAUACAGGAUAUGUGGGUGAAAAUAGCAUGACAGAAGGGUACUGUA [SameState1 Malc#33]”, the “apparent KD of MS2 coat protein” value amounted to 0.237 µM in data set [1] and 0.124 µM in data set [2].

Regarding “AACAAACAUGAGGAUCACCCAUGUAAACAAACAUGAGGAUAUAUAACACAACAUCAACAGAUAGAAGGCAUAAAUA [JR_SS001_Sub1202]”, the figures for the “apparent KD of MS2 coat protein” value in data set [1] and in data set [2] were 0.0921 µM and 0.0848 µM, respectively.

For the sequence “AACAAACAUGAGGAUCACCCAUGUAGAAACAUGGGAGGAUAUACGAAGACGAAAGUCAAAGUAGAAGGCCUAAAAA [Garnet 91]”, the figures for the “apparent KD of MS2 coat protein” value in data set [1] and in data set [2] were 0.0691 µM and 0.0609 µM, respectively.

With “AACAAUCUAUCUGAGGAUAUCAUAUAAAAGACAUGAGGAUCACCCAUGUAGCAGGAAACUGCAUAUGAGAAGGCAGAUAGAUUGA [SS2: 1121]”, the “apparent KD of MS2 coat protein” value came out at 0.0075 µM in data set [1] and 0.0108 µM in data set [2].

For the sequence “AACAAUCUAUCUGAGGAUAUCAUGACAAAGACAUGAGGAUCACCCAUGUGCAGGAAAACUGCUUAUGAGAAGGCAGAUAGAUUGA [SS2: 1113]”, the “apparent KD of MS2 coat protein” value in data set [1] was determined as 0.011 µM; in data set [2] it was 0.0146 µM.

Turning to “AACAAUCUAUCUGAGGAUAUCAUGUCAAAGACAUGAGGAUCACCCAUGUACCAGGAAACUGGUUAUGAGAAGGCAGAUAGAUUGA [SS2: 1115]”, the “apparent KD of MS2 coat protein” value in data set [1] is 0.0373 µM; in data set [2], 1.29 µM.

For the sequence “AACAAUCUAUCUGAGGAUAUCAUUAAAAAGACAUGAGGAUCACCCAUGUAGCAGGAAACUGCAUAUGAGAAGGCAGAUAGAUUGA [SS2: 1123]”, the “apparent KD of MS2 coat protein” value came to 0.0125 µM in data set [1] and 0.0139 µM in data set [2].

For the sequence “AACAAUCUAUCUGAGGAUAUCAUUUCAAAGACAUGAGGAUCACCCAUGUGCAGGAAAACUGCAAAUGAGAAGGCAGAUAGAUUGA [SS2: 1107]”, the results for the “apparent KD of MS2 coat protein” value in data set [1] and in data set [2] were 0.0103 µM and 0.0145 µM, respectively.

As to “AACAAUCUAUCUGAGGAUAUGAUGUCAAAGACAUGAGGAUCACCCAUGUGCAGGAAAACUGCAUAUCAGAAGGCAGAUAGAUUGA [SS2: 1103]”, the “apparent KD of MS2 coat protein” value in data set [1] was found to be 0.0156 µM; in data set [2], 0.0184 µM.

As to “AACAAUCUAUCUGAGGAUAUGUGUCAAAAGACAUGAGGAUCACCCAUGUAAAAACAUGAAAAAACACAGAAGGCAGAUAGAUUGA [SS2: 1148]”, the “apparent KD of MS2 coat protein” value stood at 0.0418 µM in data set [1] and 0.0593 µM in data set [2].

Regarding “AACAAUCUAUCUGAGGAUAUGUGUCAAAAGACAUGAGGAUCACCCAUGUAAAAACAUGGGAAAACACAGAAGGCAGAUAGAUUGA [SS2: 1151]”, the “apparent KD of MS2 coat protein” value stood at 0.369 µM in data set [1] and 0.184 µM in data set [2].

Take “AACAAUCUAUCUGAGGAUAUGUGUCGAAAGACAUGAGGAUCACCCAUGUCAAAACAUGGAAAGAUACAGAAGGCAGAUAGAUUGA [SS2: 1158]”: the results for the “apparent KD of MS2 coat protein” value in data set [1] and in data set [2] were 0.00833 µM and 0.0119 µM, respectively.

Take “AACAAUCUAUCUGAGGAUAUGUGUCGAAAGACAUGAGGAUCACCCAUGUCAAAACAUGGGAAGAUACAGAAGGCAGAUAGAUUGA [SS2: 1159]”: the “apparent KD of MS2 coat protein” value in data set [1] turned out to be 0.0799 µM; in data set [2], 0.417 µM.

On to “AACAAUCUAUCUGAGGAUAUGUGUCGAAAGACAUGAGGAUCACCCAUGUGAAAACAUGAAAAAUCACAGAAGGCAGAUAGAUUGA [SS2: 1143]”, for which the “apparent KD of MS2 coat protein” value in data set [1] worked out at 0.0458 µM; in data set [2], 0.146 µM.
